What is called stoichiometry N is a count of units in the complex or per binding partner.

The values below come from publication PMC12451656, “HMGB1 B‑Box Domain Associates Promote Protein–Polyelectrolyte Interactions” (The Journal of Physical Chemistry. B, 2025).

The data set concerns the molecule itself. Put plainly: dynamic light scattering; as-prepared, unfiltered B-box, 30 μM, 25 mM Tris-HCl pH 6.9, 150 mM NaCl, 25 °C, backscattering mode; the retentate of the 30 kDa filter was also measured (Figure S6).

B1: HMGB1 B-box domain (domain or fragment, human)
chain: MARIDPNAPKRPPSAFFLFCSEYRPKIKGEHPGLSIGDVAKKLGEMWNNTAADDKQPYEKKAAKLKEKYEKDIAAYRAKGKPDAAKKGVV
notes: initiator methionine followed by the triplet alanine-arginine-isoleucine (ARI), inserted through the forward primer for better expression; HMGB1 (high mobility group box 1), human, B-box domain, cloned from the human HMGB1 cDNA; Numbers count on: the construct (Cys19 = Cys106 of full-length HMGB1; Trp46); By the reverse primer, the XhoI site adds LE between V176 and the SGS-His8 tag; The DLS …
B1: the “stoichiometry N” value was about 8.
